Target: HLA-DR1 (HLA-DRA*0101, HLA-DRB1*0101) (human)
Test: ELISA

influenza A virus hemagglutinin (HA) peptide HA305-319
IC50: 29 nM
